In paper PMC7703596:

What was measured:
[1] = system: COC(=O)c1ccccc1-c1c2ccc(=N)cc-2oc2cc(N)ccc12; experiment: uptake kinetics in HeLa cells, flow cytometry; type: cell-based, Homo sapiens; conditions: ATP
[2] = system: COC(=O)c1ccccc1-c1c2ccc(=N)cc-2oc2cc(N)ccc12; experiment: efflux kinetics in HeLa cells, flow cytometry; type: cell-based, Homo sapiens; conditions: ATP

**Q.** How did the Km [1] turn out when “P-glycoprotein (P-gp) 14A mutant (Homo sapiens; F336A/F343A/L332A/L975A/M986A/S979A/V331A/V334A/V338A/V345A/V974A/V977A/V981A/V982A)” was run?
**A.** The Km was 1.69 ± 0.12 µM.

**Q.** How did the Km [2] turn out when P-glycoprotein (P-gp) (Homo sapiens) was run?
**A.** Its Km is 2.98 ± 0.51 µM.
